T1: Smc6 (subunit of the budding yeast Smc5/6 holo-complex) (budding yeast, UniProt Q12749 1-1114)
T1 sequence: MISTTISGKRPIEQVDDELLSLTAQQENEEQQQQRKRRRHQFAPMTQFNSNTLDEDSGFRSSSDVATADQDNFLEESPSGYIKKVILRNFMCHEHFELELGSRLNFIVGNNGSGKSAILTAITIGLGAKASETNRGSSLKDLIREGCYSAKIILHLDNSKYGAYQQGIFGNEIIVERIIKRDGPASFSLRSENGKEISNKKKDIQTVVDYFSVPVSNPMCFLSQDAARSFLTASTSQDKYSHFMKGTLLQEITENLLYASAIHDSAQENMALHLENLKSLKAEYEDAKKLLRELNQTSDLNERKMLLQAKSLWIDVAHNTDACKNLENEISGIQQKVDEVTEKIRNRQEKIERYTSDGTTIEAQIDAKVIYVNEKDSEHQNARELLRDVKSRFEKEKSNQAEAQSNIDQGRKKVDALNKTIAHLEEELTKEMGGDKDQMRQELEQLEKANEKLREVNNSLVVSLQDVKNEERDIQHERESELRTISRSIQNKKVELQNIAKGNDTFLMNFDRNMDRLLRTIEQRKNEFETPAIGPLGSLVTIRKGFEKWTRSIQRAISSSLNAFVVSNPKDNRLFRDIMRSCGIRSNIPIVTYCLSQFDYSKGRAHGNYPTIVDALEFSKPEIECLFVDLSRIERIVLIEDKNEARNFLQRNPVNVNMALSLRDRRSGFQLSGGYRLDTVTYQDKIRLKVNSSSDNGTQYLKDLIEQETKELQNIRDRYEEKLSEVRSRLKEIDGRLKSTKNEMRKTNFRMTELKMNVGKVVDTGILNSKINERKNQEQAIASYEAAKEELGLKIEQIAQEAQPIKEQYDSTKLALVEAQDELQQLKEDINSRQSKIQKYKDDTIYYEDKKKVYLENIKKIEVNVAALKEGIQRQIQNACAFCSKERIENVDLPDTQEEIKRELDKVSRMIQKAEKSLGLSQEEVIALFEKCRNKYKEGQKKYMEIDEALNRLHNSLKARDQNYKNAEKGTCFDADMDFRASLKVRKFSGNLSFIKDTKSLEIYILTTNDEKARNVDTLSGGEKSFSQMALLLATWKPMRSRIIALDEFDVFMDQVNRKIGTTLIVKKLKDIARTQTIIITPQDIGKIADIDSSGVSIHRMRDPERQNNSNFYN

B1: Smc5 (subunit of the budding yeast Smc5/6 holo-complex) (natural protein)
chain: MTSLIDLGRYVERTHHGEDTEPRSKRVKIAKPDLSSFQPGSIIKIRLQDFVTYTLTEFNLSPSLNMIIGPNGSGKSTFVCAVCLGLAGKPEYIGRSKKVEDFIKNGQDVSKIEITLKNSPNVTDIEYIDARDETIKITRIITRSKRRSDYLINDYQVSESVVKTLVAQLNIQLDNLCQFLSQERVEEFARLKSVKLLVETIRSIDASLLDVLDELRELQGNEQSLQKDLDFKKAKIVHLRQESDKLRKSVESLRDFQNKKGEIELHSQLLPYVKVKDHKEKLNIYKEEYERAKANLRAILKDKKPFANTKKTLENQVEELTEKCSLKTDEFLKAKEKINEIFEKLNTIRDEVIKKKNQNEYYRGRTKKLQATIISTKEDFLRSQEILAQTHLPEKSVFEDIDIKRKEIINKEGEIRDLISEIDAKANAINHEMRSIQRQAESKTKSLTTTDKIGILNQDQDLKEVRDAVLMVREHPEMKDKILEPPIMTVSAINAQFAAYLAQCVDYNTSKALTVVDSDSYKLFANPILDKFKVNLRELSSADTTPPVPAETVRDLGFEGYLSDFITGDKRVMKMLCQTSKIHTIPVSRRELTPAQIKKLITPRPNGKILFKRIIHGNRLVDIKQSAYGSKQVFPTDVSIKQTNFYQGSIMSNEQKIRIENEIINLKNEYNDRKSTLDALSNQKSGYRHELSELASKNDDINREAHQLNEIRKKYTMRKSTIETLREKLDQLKREARKDVSQKIKDIDDQIQQLLLKQRHLLSKMASSMKSLKNCQKELISTQILQFEAQNMDVSMNDVIGFFNEREADLKSQYEDKKKFVKEMRDTPEFQSWMREIRSYDQDTKEKLNKVAEKYEEEGNFNLSFVQDVLDKLESEIAMVNHDESAVTILDQVTAELRELEHTVPQQSKDLETIKAKLKEDHAVLEPKLDDIVSKISARFARLFNNVGSAGAVRLEKPKDYAEWKIEIMVKFRDNAPLKKLDSHTQSGGERAVSTVLYMIALQEFTSAPFRVVDEINQGMDSRNERIVHKAMVENACAENTSQYFLITPKLLTGLHYHEKMRIHCVMAGSWIPNPSEDPKMIHFGETSNYSFD
B2: Nse5 (subunit of the budding yeast Smc5/6 holo-complex) (natural protein)
chain: MDGALINSVLYVSPRNGAHYFVELTEKHLLAFEMLNSMCLLENYDHVLLFLECQFGKSHNLAVIPFDIILVLFTLSTLSEYYKEPILRANDPYNTSRETLSRRALKLLQKYLAILKEFDSEQYNLYDLELLRCQFFLAIDTLTPKKQKWGFDRFRRTKSESGVTYRQNASVDPELDQAKTFKNPYRSYISCLEQRNTILGNRLLNLKLNEPGEFINMILWTLSNSLQESTPLFLSSHEIWMPLLEILIDLFSCRQDYFIQHEVAQNVSKSLFVQRLSESPLAVFFESLNTRNFANRFSEYVFLNCDYKLPSDNYATPVHPVYNGENTIVDTYIPTIKCSPLYKSQKSLALRRKLIGSCFKLLLRVPDGHRLITPRIVADDVIQGISRTLASFNDILQFKKFFMTENLSQESYFIPLLAEGTLSEILKDTQECVVILTLVENLSDGVSFCNEVIGLVKSKCFAFTEQCSQASYEEAVLNIEKCDVCLLVLLRYLLHLIGTEAILDAKEQLEMLHAIEKNDSGRRQWAKALNLGNDPPLLYPIVSQMFGVHDKSVIIE
B3: Nse6 (subunit of the budding yeast Smc5/6 holo-complex) (natural protein)
chain: MGSVNSSPNEEFETVPDSQISGFDSPLIPTSVGSYFRDDDDDEKVHPNFISDPENDSLNSDEEFSSLENSDLNLSGAKAESGDDFDPILKRTIISKRKAPSNNEDEEIVKTPRKLVNYVPLKIFNLGDSFDDTITTTVAKLQDLKKEILDSPRSNKSIVITSNTVAKSELQKSIKFSGSIPEIYLDVVTKETISDKYKDWHFISKNCHYEQLMDLEMKDTAYSFLFGSSRSQGKVPEFVHLKCPSITNLLVLFGVNQEKCNSLKINYEKKENSRYDNLCTIFPVNKMLKFLMYFYSDDDNDDVREFFLKAFICLILDRKVFNAMESDHRLCFKVLELFNEAHFINSYFEIVDKNDFFLHYRLLQIFPHLQSALLRRRFSEKQGRTETIQQNIIKEFNEFFDCKNYKNLLYFILTMYGSKFIPFGPKCQVTEYFKDCILDISNETTNDVEISILKGILNLFSKIR

Experiments:
[1] = molecular target: T1, Smc6 (subunit of the budding yeast …); experiment: negative stain EM
[2] = molecular target: B3; experiment: cross-linking
[3] = molecular target: B1; experiment: cross-linking
[4] = molecular target: T1, Smc6 (subunit of the budding yeast …); experiment: cross-linking
[5] = molecular target: B2; experiment: cross-linking

Row | binding result [1] | binding result [2] | binding result [3] | binding result [4] | binding result [5] | Binder
1 | binds |  |  |  |  | B1
2 |  | binds | binds | binds |  | Nse2 SUMO ligase (subunit of the budding yeast Smc5/6 holo-complex) (natural protein) MALNDNPIPKSVPLHPKSGKYFHNLHARDLSNIYQQCYKQIDETINQLVDSTSPSTIGIEEQVADITSTYKLLSTYESESNSFDEHIKDLKKNFKQSSDACPQIDLSTWDKYRTGELTAPKLSELYLNMPTPEPATMVNNTDTLKILKVLPYIWNDPTCVIPDLQNPADEDDLQIEGGKIELTCPITCKPYEAPLISRKCNHVFDRDGIQNYLQGYTTRDCPQAACSQVVSMRDFVRDPIMELRCKIAKMKESQEQDKRSSQAIDVL
3 |  |  | binds | binds |  | B2
4 |  |  | binds | binds | binds | B3

Reference: article doi:10.1101/2020.12.31.424863 (bioRxiv, 2020)
